Source: patent US6780974B2, “Synthetic DNA encoding an orange seapen-derived green fluorescent protein with codon preference of mammalian expression systems and biosensors” (Cellomics, Inc., priority 2001, dated 2004)

B1: hPtFP DNA: synthetic DNA encoding hPtFP with codons favored for mammalian expression systems (nucleic acid)
DNA: AAGCTTGCCACCATGGTGAACCGGAACGTGCTGAAGAACACCGGCCTGAAGGAGATCATGAGCGCCAAGGCCAGCGTGGAGGGCATCGTGAACAACCACGTGTTCAGCATGGAGGGCTTCGGCAAGGGCAACGTGCTGTTCGGCAACCAGCTGATGCAGATCCGGGTGACCAAGGGCGGCCCTCTGCCCTTCGCCTTCGACATCGTGAGCATCGCCTTCCAGTACGGCAACCGGACCTTCACCAAGTATCCCGACGACATCGCCGACTACTTCGTGCAGAGCTTCCCTGCCGGCTTCTTCTACGAGCGGAACCTGCGGTTCGAGGACGGCGCCATCGTGGACATCCGGAGCGACATCAGCCTGGAGGACGACAAGTTCCACTACAAGGTGGAGTACCGCGGCAACGGCTTCCCTAGCAACGGCCCTGTGATGCAGAAGGCCATCCTGGGCATGGAGCCCAGCTTCGAGGTGGTGTACATGAACAGCGGCGTGCTGGTGGGCGAGGTGGACCTGGTGTACAAGCTGGAGAGCGGCAACTACTACAGCTGCCACATGAAGACCTTCTACCGGAGCAAGGGCGGCGTGAAGGAGTTCCCTGAGTACCTATTCATCCACCACCGGCTGGAGAAGAACTACGTGGAGGAGGGCAGCTTCGTGGAGCAGCACGAGACCGCCATCGCCCAGCTGACCACCATCGGCAAGCCTCTGGGCAGCCTGCACGAGTGGGTGTAAAGCGGCCGCAAGCTTGCCACCATGGTGAACCGGAACGTGCTGAAGAACACCGGCCTGAAGGAGATCATGAGCGCCAAGGCCAGCGTGGAGGGCATCGTGAACAACCACGTGTTCAGCATGGAGGGCTTCGGCAAGGGCAACGTGCTGTTCGGCAACCAGCTGATGCAGATCCGGGTGACCAAGGGCGGCCCTCTGCCCTTCGCCTTCGACATCGTGAGCATCGCCTTCCAGTACGGCAACCGGACCTTCACCAAGTATCCCGACGACATCGCCGACTACTTCGTGCAGAGCTTCCCTGCCGGCTTCTTCTACGAGCGGAACCTGCGGTTCGAGGACGGCGCCATCGTGGACATCCGGAGCGACATCAGCCTGGAGGACGACAAGTTCCACTACAAGGTGGAGTACCGCGGCAACGGCTTCCCTAGCAACGGCCCTGTGATGCAGAAGGCCATCCTGGGCATGGAGCCCAGCTTCGAGGTGGTGTACATGAACAGCGGCGTGCTGGTGGGCGAGGTGGACCTGGTGTACAAGCTGGAGAGCGGCAACTACTACAGCTGCCACATGAAGACCTTCTACCGGAGCAAGGGCGGCGTGAAGGAGTTCCCTGAGTACCTATTCATCCACCACCGGCTGGAGAAGAACTACGTGGAGGAGGGCAGCTTCGTGGAGCAGCACGAGACCGCCATCGCCCAGCTGACCACCATCGGCAAGCCTCTGGGCAGCCTGCACGAGTGGGTGTAAAGCGGCCGC
B2: hPtFP: full length humanized Ptilosarcus gurneyi green fluorescent protein, 239 amino acid residues, valine added at position 2 (protein)
chain: MVNRNVLKNTGLKEIMSAKASVEGIVNNHVFSMEGFGKGNVLFGNQLMQIRVTKGGPLPFAFDIVSIAFQYGNRTFTKYPDDIADYFVQSFPAGFFYERNLRFEDGAIVDIRSDISLEDDKFHYKVEYRGNGFPSNGPVMQKAILGMEPSFEVVYMNSGVLVGEVDLVYKLESGNYYSCHMKTFYRSKGGVKEFPEYHFIHHRLEKTYVEEGSFVEQHETAIAQLTTIGKPLGSLHEWV

Columns and labels:
Type in all cases: cell-based
COS1 cells [1] = experiment: Fluorescence of COS1 cells transiently transfected with humanized versus wild type PtFP DNA (ARRAYSCAN II); conditions: transient transfection
Text: The difference at the nucleotide level (versus codon level) is that the hPtFP open reading frame (including the stop codon) contains 720 nucleotides, whereas the PtFP open reading frame (including the stop codon) contains 717 nucleotides. It will be appreciated by those skilled in the art, that without counting the extra valine introduced into hPtFP of the present invention, there are 166 nucleotide differences between the 717 nucleotides compared, or 23.15 percent difference (or 76.85% identity). If the stop codon is excluded in this comparison, there are 165 nucleotide differences in the 714 nucleotides compared, or 23.10 percent difference (or 76.9% identity). […]
To compare the expression of wild type Ptilosarcus gurneyi fluorescent protein DNA with humanized Ptilosarcus gurneyi green fluorescent protein synthetic DNA as described above, an expression vector for the wild type Ptilosarcus gurneyi DNA was constructed by cloning the wild type PtFP into the expression vector M2, and thus, these two expression vectors under comparison differed only in their coding regions. […] The purified DNA preps were quantitated by reading the optic absorption at 260 nm (nanometers) with a HP8453 UV—visible spectrophotometer (Agilent Technologies, Palo Alto, Calif., USA) and calculated based on 1 O.D.=[…] DNA. […]

HEK293 cells = experiment: Percentage of hPtFP-positive cells in stably transfected HEK293 mixed population during passage (growth / toxicity); conditions: for toxicity to host cells: stably transfected mammalian host cells (HEK293)
Protocol: The cells were co-transfected with the hPtFP construct and pSV2-neo (Cat #37149, ATCC, Manassas, Va., USA) with FUGENE 6 transfection reagent (Roche Molecular Biochemicals, Indianapolis, Ind., USA) following the manufacturer's instructions. Two days after transfection, cells were treated with 0.4 mg/ml (milligram/milliliter) G418 in normal growth medium. After treating with G418 for two weeks, drug resistant cells were isolated or pooled. A mixture of stably transfected HEK293 mixed population (in which about 30% of the cells expressing hPtFP of this invention) were plated out in 96 cell micro plates. After 2, 4, or 6 days incubation, the cells were fixed with 3.7% formaldehyde for 20 minutes at room temperature (25° Centigrade). The percentage of positive cells was quantitated with ARRAYSCAN II instrument, as described herein.
To compare the growth rates of cells expressing or not expressing hPtFP, a mixture of stably transfected HEK293 mixed population (in which about 30% of the cells expressing hPtFP of this invention) were plated out in 96-well micro plates. After 2, 4, or 6 days incubation, the cells were fixed with 3.7% (percent) formaldehyde for twenty minutes at room temperature (25 degrees Centigrade). The percentage of positive cells was quantitated with ARRAYSCAN II instrument, as described herein.

COS1 cells [2] = experiment: In situ absorption and emission spectra of live COS1 cells expressing hPtFP; conditions: in COS-1 cells
Protocol: Forty-eight hours after initial transfection with the synthetic green fluorescent protein DNA of the present invention, COS1 cells were trypsinized and were kept in suspension. The absorption and emission spectra of the live cells expressing the hPtFP of the present invention were then measured, as shown in FIG. 2.

Row | Molecule | number and brightness of expressing cells compared with wild type PtFP DNA (visual observation) (COS1 cells [1]) | fluorescent signal compared with wild type Ptilosarcus gurneyi green fluorescent protein (COS1 cells [1]; identical amount of DNA, forty hours post-transfection, intensity in nuclear area (FIG. 3)) | toxicity to host cells (HEK293 cells) | percentage of positive cells during cell passage (HEK293 cells; HEK293 mixed population, about 30% expressing hPtFP, 2, 4 or 6 days incubation, no selection (FIG. 5)) | absorption and emission spectra compared with wildtype Ptilosarcus gurneyi (COS1 cells [2])
1 | B1 | more hPtFP expressing cells and brighter cells than the wild type | stronger fluorescent signals than the wild type | does not have toxic effects on the host cells |  | 
2 | B2 |  |  | not toxic to the cells | did not change | unchanged
